This is an account of results in US20210246451, “APTAMER FOR ADAMTS5 AND USE FOR APTAMER FOR ADAMTS5” (RIBOMIC INC., published 2021).

In data set [1] the target is T1, ADAMTS5 (UniProt Q9UNA0 Q9UNA0:262-622).
T1 sequence: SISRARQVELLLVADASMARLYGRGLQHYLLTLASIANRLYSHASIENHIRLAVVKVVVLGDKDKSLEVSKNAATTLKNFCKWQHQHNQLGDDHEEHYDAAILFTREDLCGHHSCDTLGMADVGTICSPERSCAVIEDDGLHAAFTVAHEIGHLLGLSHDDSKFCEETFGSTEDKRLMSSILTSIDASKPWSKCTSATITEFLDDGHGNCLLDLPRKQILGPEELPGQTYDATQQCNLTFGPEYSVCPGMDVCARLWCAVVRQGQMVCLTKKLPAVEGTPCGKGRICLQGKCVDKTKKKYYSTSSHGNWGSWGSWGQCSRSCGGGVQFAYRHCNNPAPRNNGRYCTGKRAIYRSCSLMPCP
Description: inhibition; 30 nM. The note with it: tags: R&D Systems. The method, then: (§1) Whether an aptamer having the nucleotide sequence shown in SEQ ID NO: 1 inhibits the enzyme activity of ADAMTS5 was evaluated by the following method. As a substrate of ADAMTS5, the G1-IGD-G2 domain of aggrecan (manufactured by R&D systems) was used. ADAMTS5 specifically cleaves in between the 392nd glutamic acid and the 393rd alanine in the G1-IGD-G2 domain and produces two fragments. These fragments have faster electrophoretic mobility than uncleaved G1-IGD-G2. Thus, the enzyme activity of ADAMTS5 can be measured by quantifying the band intensity of G1-IGD-G2 by SDS-PAGE electrophoresis. The assay was performed in a solution A buffer with a reaction mixture volume of 10 μL. First, a mixture (10 μL) of a nucleic acid and ADAMTS5 was prepared and incubated at 25° C. for 15 min. To a substrate solution (5 μL) diluted with solution A was added a mixture (5 μL) of the nucleic acid and ADAMTS5 to start the enzyme reaction. The final concentration of ADAMTS5 in the reaction solution was 5 nM, and the final substrate concentration was 50 μg/mL. The reaction solution was incubated at 37° C. for 2 hr, 2 μL of solution D was added, and the mixture was heated at 95° C. for 2 min to stop the enzyme reaction of ADAMTS5. Solution D contains 0.25 M tris (pH 6.8), 10% SDS, 50% glycerol, 0.25% bromo phenolblue, and 20% 2-mercaptoethanol. The heat-treated reaction solution was electrophoresed by 7.5% SDS-PAGE and stained with SYPRO Orange (manufactured by Sigma-Aldrich). The staining was performed according to the manual of Sigma-Aldrich and detected using STORM840 manufactured by GE Healthcare. […] The amount of uncleaved substrate in each reaction solution was quantified from the band intensity and the standard curve. The substrate cleavage efficiency of ADAMTS5 under these reaction conditions was 80-100%. The inhibition rate of the test substance was calculated using the following equation.
Whether these aptamers inhibit the enzyme activity of ADAMTS5 was tested by a method similar to that in Example 1. The final concentration of the nucleic acid was fixed to 30 nM in the test.

Data set [2] has as its target T1, ADAMTS5. As to the kind of experiment: inhibition; 30 nM. Particulars: tags: R&D Systems. The method, then: as §1
The nucleic acids shown in SEQ ID NOs: 3(1)-3(16) were all produced by chemical synthesis. Whether these nucleic acids inhibit the enzyme activity of ADAMTS5 was determined by a method similar to that in Example 1.
The source holds these as a separate data set.

In data set [3] the target is T1, ADAMTS5. Description: inhibition; 10 nM. Particulars: tags: R&D Systems. The method, then: as §1, with “The substrate cleavage efficiency of ADAMTS5 under these reaction conditions was 80-100%.” left out
The nucleic acids of SEQ ID NOs: 10-12 were all produced by chemical synthesis. Whether aptamers having the nucleotide sequences shown by these nucleic acids inhibit the enzyme activity of ADAMTS5 was determined by a method similar to that in Example 1.

The target in data set [4] is T1, ADAMTS5. As to the kind of experiment: inhibition; 10 nM aptamer. Particulars: tags: R&D Systems. The method, then: as §1, with “The substrate cleavage efficiency of ADAMTS5 under these reaction conditions was 80-100%.” left out
The binding activity and enzyme inhibitory activity of aptamers having nucleotide sequences shown in SEQ ID NOs: 16-25 to ADAMTS5 were measured. The binding activity was evaluated by the surface plasmon resonance method. […]

Data set [5] has as its target T1, ADAMTS5. Description: inhibition; 5 nM ADAMTS5, aggrecan G1-IGD-G2 cleavage, 145 mM NaCl, Ca, Mg, 37 C. Particulars: tags: R&D Systems; stem-internal loop-stem-loop (MFOLD). The method, then:
as §1, with “The final concentration of ADAMTS5 in the reaction solution was 5 nM, and the final substrate concentration was 50 μg/mL. The reaction solution was incubated at 37° C. for 2 hr, 2 μL of solution D was added, and the mixture was heated at 95° C. for 2 min to stop the enzyme reaction of ADAMTS5. Solution D contains 0.25 M tris (pH 6.8), 10% SDS, 50% glycerol, 0.25% bromo phenolblue, and 20% 2-mercaptoethanol. The heat-treated reaction solution was electrophoresed by 7.5% SDS-PAGE and stained with SYPRO Orange (manufactured by Sigma-Aldrich).” left out, “The substrate cleavage efficiency of ADAMTS5 under these reaction conditions was 80-100%.” left out
The concentration of an inhibitor necessary for inhibiting 50% of the enzyme activity (IC₅₀) was determined. […]

In data set [6] the target is T1, ADAMTS5. As to the kind of experiment: inhibition; SDS-PAGE aggrecan cleavage, 5 nM enzyme. Particulars: tags: R&D Systems. As for the experimental part:
as §1, with “The reaction solution was incubated at 37° C. for 2 hr, 2 μL of solution D was added, and the mixture was heated at 95° C. for 2 min to stop the enzyme reaction of ADAMTS5. Solution D contains 0.25 M tris (pH 6.8), 10% SDS, 50% glycerol, 0.25% bromo phenolblue, and 20% 2-mercaptoethanol. The heat-treated reaction solution was electrophoresed by 7.5% SDS-PAGE and stained with SYPRO Orange (manufactured by Sigma-Aldrich).” left out, “The substrate cleavage efficiency of ADAMTS5 under these reaction conditions was 80-100%.” left out, “equation. […]” for “equation.”

The target of data set [7] is T1, ADAMTS5. Description: inhibition; SDS-PAGE aggrecan cleavage; 81% inhibition in Table 9 method 1. Particulars: tags: R&D Systems. As for the experimental part:
As a substrate of ADAMTS5, the G1-IGD-G2 domain of aggrecan (manufactured by R&D systems) was used. ADAMTS5 specifically cleaves in between the 392nd glutamic acid and the 393rd alanine in the G1-IGD-G2 domain and produces two fragments. These fragments have faster electrophoretic mobility than uncleaved G1-IGD-G2. Thus, the enzyme activity of ADAMTS5 can be measured by quantifying the band intensity of G1-IGD-G2 by SDS-PAGE electrophoresis. The assay was performed in a solution A buffer with a reaction mixture volume of 10 μL. First, a mixture (10 μL) of a nucleic acid and ADAMTS5 was prepared and incubated at 25° C. for 15 min. […] The staining was performed according to the manual of Sigma-Aldrich and detected using STORM840 manufactured by GE Healthcare. […] The amount of uncleaved substrate in each reaction solution was quantified from the band intensity and the standard curve. […] The inhibition rate of the test substance was calculated using the following equation.
The aptamer having the sequence shown in SEQ ID NO: 26 was prepared by transcription by T7RNA polymerase, and the aptamers having the sequences shown in SEQ ID NOs: 27-29 were prepared by chemical synthesis. Whether these aptamers inhibit the enzyme activity of ADAMTS5 was evaluated by a method similar to that in Example 1. In the Table, “n.d.” means not determined.

The target of data set [8] is T1, ADAMTS5. As to the kind of experiment: SPR; RU ratio <10%, same level as 40N; 300 mM NaCl, Ca, Mg. Particulars: tags: R&D Systems. The method, then: The binding activity of aptamers having the nucleotide sequences shown in SEQ ID NOs: 1 and 2 to ADAMTS5 was evaluated by the surface plasmon resonance method. Biacore T100 manufactured by GE Healthcare was used for the measurement. The SA chip was used as the sensor chip, which had streptavidin immobilized thereon. About 800 RU of a 16-nucleotide Poly dT with biotin at the 5′-terminal was bound on the chip. […] ADAMTS5 for analyte was prepared at 0.1 μM, and injected at a flow rate so of 30 μL/min for 60 sec. As the running buffer, solution C was used. The solution C is a mixed solution of 300 mM sodium chloride, 5.4 mM potassium chloride, 1.8 mM calcium chloride, 0.8 mM magnesium chloride, 20 mM tris (pH 7.6), and 0.05% Tween20.
SEQ ID NO: 2 has a sequence with one base deletion from the continuous 4 G bases in the consensus sequence, and it was shown from the measurement results of the binding activity that the continuous 4 G bases in the consensus sequence are important for the activity of aptamers. Sensorgram showing the binding of an aptamer having the nucleotide sequence shown in SEQ ID NO: 1 to ADAMTS5 is presented in FIG. 2. […]
A general note: Surface plasmon resonance follows binding to a sensor surface in real time, without labels.

B1: SEQ ID NO: 4 (ssRNA)
RNA: GGCUUGGGGCCUCCACAGCUGCUCAGCUUGGACUAAACCAAGCC
modifications: 2'-F pyrimidines
With B1, in the data set with ADAMTS5 [1], the activity came to 23 % inhibition.

B2: 3(3) (ssRNA)
RNA: GGAUUGGGGCCUCCACAGCUGCUCAGCUUGGACUAAACCAAUCC
modifications: 2'-OMe at 18-20,25-27; 2'-F other pyrimidines
B2 yielded an activity with ADAMTS5 [2] of 48.6 % inhibition.

B3: 3(2) (ssRNA)
RNA: GGAUUGGGGCCUCCACAGCUGCUCAGCUUGGACUAAACCAAUCC
modifications: 2'-OMe at 4-6,39-41; 2'-F other pyrimidines
In the data set with ADAMTS5 [2], B3 registered an activity of 53.6 % inhibition.

B4: 3(4) (ssRNA)
RNA: GGAUUGGGGCCUCCACAGCUGCUCAGCUUGGACUAAACCAAUCC
modifications: 2'-OMe at A36; 2'-F pyrimidines
In turn, B4 showed an activity with ADAMTS5 [2] of 53.1 % inhibition.

B5: 3(1) (ssRNA)
RNA: GGAUUGGGGCCUCCACAGCUGCUCAGCUUGGACUAAACCAAUCC
modifications: 2'-OMe at 1-3,42-44; 2'-F other pyrimidines
In the case of B5, the activity with ADAMTS5 [2] was 49.8 % inhibition.

B6: SEQ ID NO: 5 (ssRNA)
RNA: GGCUUGGGGCCUCCACAGCGCUCGCUUGGACUAAACCAAGCC
modifications: 2'-F pyrimidines
In the data set with ADAMTS5 [1], B6 had an activity of 27 % inhibition.

B7: SEQ ID NO: 10 (ssRNA)
RNA: AUUGGGGCCUCCACAGCUGCUCAGCUUGGACUAAACCAAU
modifications: 2'-OMe at 1-5,15-26,28,34-40; 2'-F other pyrimidines
As for B7, in the data set with ADAMTS5 [3], the activity worked out at 65 % inhibition.

B8: SEQ ID NO: 24 (ssRNA)
RNA: GGGACAUGCGUAACUUGAUAGGGGCCUCCACAGCCGGUAGGCUUGGACUCAAACCAUCAAGUCCAGAUCGAGCA
modifications: 2'-F at all pyrimidines
With B8, the activity with ADAMTS5 [4] stood at 20.2 % inhibition.

B9: SEQ ID NO: 22 (ssRNA)
RNA: GGGACAUGCGUAACUGCAUAGGGGCCUCCACAGCUAUUCAGCUUGGACACAAACCAUGCAGUCCAGAUCGAGCA
modifications: 2'-F at all pyrimidines
In turn, B9 displayed an activity with ADAMTS5 [4] of 14.8 % inhibition.

B10: SEQ ID NO: 23 (ssRNA)
RNA: GGGACAUGCGUAACUGUAUAGGGGCCUCCACAGCUGAAAAGCUUGGACUCAAACCAUACAGUCCAGAUCGAGCA
modifications: 2'-F at all pyrimidines
In the data set with ADAMTS5 [4], B10 displayed an activity of 14.5 % inhibition.

B11: SEQ ID NO: 9 (ssRNA)
RNA: GGAUUGGGGCCUCCACAGCGUCGCUUGGACUAAACCAAUCC
modifications: 2'-F pyrimidines
B11 gave an activity in the data set with ADAMTS5 [1] of 5.9 % inhibition.

B12: SEQ ID NO: 1 (ssRNA)
RNA: GGGUACGACCGUCGUACGAUUGGGGCCUCCACAGCUGCUCAGCUUGGACUAAACCAAUAAGAGACUAACGCCUAGCGUAC
modifications: 2'-F pyrimidines, 2'-OH purines; 3' A16 tail for SPR
B12: half-maximal inhibition with ADAMTS5 [5] (IC50) required 16.8 nM.

B13: SEQ ID NO: 27 (ssRNA)
RNA: UAUAGGGGCCUCCACAGCGUAAGCUUGGACUUAAACCAUA
modifications: 2'-OMe at 1-3,5,6,16-19,23-27,34-40; 2'-F other pyrimidines
B13: 5.9 nM corresponded to half-maximal inhibition with ADAMTS5 [6] (IC50). This lies in the single-digit nanomolar range.

B14: SEQ ID NO: 28 (ssRNA)
RNA: CGUAGGGGCCUCCACAGCGUAAGCUUGGACUUAAACCACG
modifications: 2'-OMe at 1-3,5,6,16-19,23-27,34-40; 2'-F other pyrimidines
On to B14, for which the half-maximal inhibitory concentration (IC50) (in general, the concentration at which inhibition is half-maximal) with ADAMTS5 [7] came out at 3.4 nM. In other words, the single-digit nanomolar range.

B15: SEQ ID NO: 11 (ssRNA)
RNA: AUUGGGGCCUCCACAGCGCUCGCUUGGACUAAACCAAU
modifications: 2'-OMe at 1-5,15-24,26,32-38; 2'-F other pyrimidines
In the data set with ADAMTS5 [3], B15 returned an activity of 59.8 % inhibition.

B16: SEQ ID NO: 2 (ssRNA)
RNA: GGGUACGACCGUCGUACGAUUGGGCCUCCACAGCUGCUCAGCUUGGACUAAACCAAUAAGAGACUAACGCCUAGCGUAC
modifications: 2'-F pyrimidines; 3' A16 tail for SPR
Turning to B16, the binding result with ADAMTS5 [8] is listed as “no binding”.

B17: SEQ ID NO: 12 (ssRNA)
RNA: UUGGGGCCUCCACAGCGCUCGCUUGGACUAAACCAA
modifications: 2'-OMe at 1-4,14-23,25,31-36; 2'-F other pyrimidines
Turning to B17, in the data set with ADAMTS5 [3], the activity was determined as 71.1 % inhibition.

B18: SEQ ID NO: 6 (ssRNA)
RNA: GGCUUGGGGCCUCCACAGCUGUCAGCUUGGACUAAACCAAGCC
modifications: 2'-F pyrimidines
B18 registered an activity with ADAMTS5 [1] of 33.7 % inhibition.
